Assay results: patent US20050084449A1

What was measured:
[1] = target: TIM-1 antigen, cell membrane-bound (on ACHN, CAKI-2, CAKI-1 renal cancer cells and polarized/activated human CD4+ T cells) (human) (UniProt Q96D42); assay: FACS on activated T cells, Day 0, +MMPI
[2] = target: TIM-1 antigen, cell membrane-bound (on ACHN, CAKI-2, CAKI-1 renal cancer cells and polarized/activated human CD4+ T cells) (human) (UniProt Q96D42); assay: FACS on activated T cells, Day 0, -MMPI
[3] = target: TIM-1 antigen, cell membrane-bound (on ACHN, CAKI-2, CAKI-1 renal cancer cells and polarized/activated human CD4+ T cells) (human) (UniProt Q96D42); assay: FACS on activated T cells, Day 1, +MMPI
[4] = target: TIM-1 antigen, cell membrane-bound (on ACHN, CAKI-2, CAKI-1 renal cancer cells and polarized/activated human CD4+ T cells) (human) (UniProt Q96D42); assay: FACS on activated T cells, Day 1, -MMPI
[5] = target: TIM-1 antigen, cell membrane-bound (on ACHN, CAKI-2, CAKI-1 renal cancer cells and polarized/activated human CD4+ T cells) (human) (UniProt Q96D42); assay: FACS on activated T cells, Day 2, +MMPI
[6] = target: TIM-1 antigen, cell membrane-bound (on ACHN, CAKI-2, CAKI-1 renal cancer cells and polarized/activated human CD4+ T cells) (human) (UniProt Q96D42); assay: FACS on activated T cells, Day 2, -MMPI
[7] = target: TIM-1 antigen, cell membrane-bound (on ACHN, CAKI-2, CAKI-1 renal cancer cells and polarized/activated human CD4+ T cells) (human) (UniProt Q96D42); assay: FACS on activated T cells, Day 4, +MMPI
[8] = target: TIM-1 antigen, cell membrane-bound (on ACHN, CAKI-2, CAKI-1 renal cancer cells and polarized/activated human CD4+ T cells) (human) (UniProt Q96D42); assay: FACS on activated T cells, Day 4, -MMPI
[9] = target: TIM-1 antigen, cell membrane-bound (on ACHN, CAKI-2, CAKI-1 renal cancer cells and polarized/activated human CD4+ T cells) (human) (UniProt Q96D42); assay: FACS on activated T cells, Day 5, +MMPI
[10] = target: TIM-1 antigen, cell membrane-bound (on ACHN, CAKI-2, CAKI-1 renal cancer cells and polarized/activated human CD4+ T cells) (human) (UniProt Q96D42); assay: FACS on activated T cells, Day 5, -MMPI

TIM-1 antigen, cell membrane-bound (on ACHN, CAKI-2, CAKI-1 renal cancer cells and polarized/activated human CD4+ T cells) (human), sequence (Q96D42 21-364): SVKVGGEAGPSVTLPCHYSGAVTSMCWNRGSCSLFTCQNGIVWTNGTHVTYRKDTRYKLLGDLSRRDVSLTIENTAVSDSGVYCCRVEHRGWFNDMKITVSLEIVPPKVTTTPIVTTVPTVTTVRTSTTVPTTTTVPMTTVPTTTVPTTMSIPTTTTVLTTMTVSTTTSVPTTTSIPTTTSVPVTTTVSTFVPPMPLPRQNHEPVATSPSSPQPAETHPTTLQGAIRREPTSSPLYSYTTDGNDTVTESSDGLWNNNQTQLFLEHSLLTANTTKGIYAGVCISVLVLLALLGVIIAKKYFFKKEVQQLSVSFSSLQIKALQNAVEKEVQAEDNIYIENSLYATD

With “isotype matched control mAb PK16.3 (antibody)” the Percent of activated T cells that express TIM-1 (percent stained) [1] was 1%, the Percent of activated T cells that express TIM-1 (percent stained) [2] was 1% and the Percent of activated T cells that express TIM-1 (percent stained) [3] was 2%. The Percent of activated T cells that express TIM-1 (percent stained) [4] was 3%, the Percent of activated T cells that express TIM-1 (percent stained) [5] was 6% and the Percent of activated T cells that express TIM-1 (percent stained) [6] was 3%. It also gave a Percent of activated T cells that express TIM-1 (percent stained) [7] of 2%, a Percent of activated T cells that express TIM-1 (percent stained) [8] of 1% and a Percent of activated T cells that express TIM-1 (percent stained) [9] of 2%. For the same substance, the Percent of activated T cells that express TIM-1 (percent stained) [10] was 1%.
